Source: the supplement of paper PMC9170038

Tested on: MS2 coat protein
Assay: apparent KD of MS2 coat protein; designed switch direction (-1 OFF switch, 1 ON switch): 1; higher = weaker reporter binding
Summary of the method: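 Three titration conditions were used: no input, 200 uM small-molecule ligand, and an oligonucleotide input. In each, SNAP-549-labelled MS2 coat protein was raised from 0.7 or 1.5 nM, doubling, to 3 µM over designed RNA switches transcribed on Illumina chips by stalled E. coli RNA polymerase. Curve fits of normalised cluster fluorescence gave values whose per-design median over clusters is the apparent KD.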

[1] = input ligand: microRNA oligo, concentration not stated
[2] = Eterna round: R95, input ligand: FMN 200 uM
[3] = Eterna round: R95, input ligand: microRNA oligo, concentration not stated
[4] = Eterna round: R95, input ligand: none

GAGCCAGUCCGAGGAUAUUCAUUAAAUUAAAUACAUGAGGAUCACCCAUGUAGGCGAGAGCCUUGGGAGAAGGCGGACUGGCUC [Xeonanisa>>4] (Eterna round: R96, puzzle: Same State NG 2)
apparent KD of MS2 coat protein (input ligand: FMN 200 uM): 15.5 nM
apparent KD of MS2 coat protein [1]: 53.8 nM
apparent KD of MS2 coat protein (input ligand: none): 97.6 nM

GAGCCAGUCCGAGGAUAUUCGUAGUAACACAUGAGGAUCACCCAUGUGGGCUCAGAAGAGCCCUUGGAGAAGGCGGGCUGGCUC [SS-NG2-LRO19] (Eterna round: R96, puzzle: Same State NG 2)
apparent KD of MS2 coat protein (input ligand: FMN 200 uM): 7.41 nM
apparent KD of MS2 coat protein [1]: 9.15 nM
apparent KD of MS2 coat protein (input ligand: none): 12.4 nM

GAGGAUGAUUUACAGGAUAUAUAGCAGAUGACAUGAGGAUCACCCAUGUAAGAGAAAGGAGGGAGAUAGAAGGGUAUGGGAUGUG [JR_SS2_Sub039] (puzzle: Same State 2)
apparent KD of MS2 coat protein [2]: 29.9 nM
apparent KD of MS2 coat protein [3]: 21.5 nM
apparent KD of MS2 coat protein [4]: 22.3 nM

GAGGGACAGACCAACAUGAGGAUCACCCAUGUCCUCGCAGGUCAGGAUAUUAUGAGGAUCACCCGUGAGAAGGGACGGUGAAUU (Eterna round: R96, puzzle: Same State NG 3)
apparent KD of MS2 coat protein (input ligand: FMN 200 uM): 709 nM
apparent KD of MS2 coat protein [1]: 390 nM
apparent KD of MS2 coat protein (input ligand: none): 804 nM

GAGGGACAGACCAACAUGAGGAUCACCCAUGUCCUCGCAGGUCAGGAUAUUAUUAGGAUCACCAGUGAGAAGGGACGGUGAACC (Eterna round: R96, puzzle: Same State NG 3)
apparent KD of MS2 coat protein (input ligand: FMN 200 uM): 755 nM
apparent KD of MS2 coat protein [1]: 398 nM
apparent KD of MS2 coat protein (input ligand: none): 564 nM

GAGUAGUACGGAGGAUAUGGGCAGAACAAGACACCAGAAGGCCGACAUGAGGAUGCUGGACAUGAGGAUCACCCAUGUACCUGA [Same State 1 S3] (Eterna round: R96, puzzle: Same State NG 1)
apparent KD of MS2 coat protein (input ligand: FMN 200 uM): 22.8 nM
apparent KD of MS2 coat protein [1]: 92.6 nM
apparent KD of MS2 coat protein (input ligand: none): 85.4 nM

GAGUAGUUGAAAGGAUAUCGAUUGUUAUAGAAUCGAGAAGGUUCUAACAUGAGGAUCACCCAUGUAGGACUAUUCCUGUGUAUC [Parity 77 - Jieux - Same State NG 1] (Eterna round: R96, puzzle: Same State NG 1)
apparent KD of MS2 coat protein [1]: 9.75 nM

GAGUGGUGGAGAGGAUAUGCAUUGUUAUUCACUGUAGAAGGUUCUAACAUGAGGAUCACCCAUGUAGGACUAUUCCUGUGUUUU [Parity 58 - Jieux - Same State NG 1] (Eterna round: R96, puzzle: Same State NG 1)
apparent KD of MS2 coat protein [1]: 9.4 nM

GAUUAACAUGAGGAUCACCCAUGUCGUUAUAUGGGAGGAUAUACGUGGACCGUAGUCCGCGUAGAAGGCCUAAUUG [Mat - Same State 1 - Mod of JL - D23] (Eterna round: R96, puzzle: Same State 1)
apparent KD of MS2 coat protein (input ligand: FMN 200 uM): 67.3 nM
apparent KD of MS2 coat protein [1]: 115 nM
apparent KD of MS2 coat protein (input ligand: none): 262 nM

GAUUAACAUGAGGAUCACCCAUGUCGUUAUAUGGGAGGAUAUACGUGGACCGUAGUCCGCGUAGAAGGCCUAAUUG [Mat - Same State 1 - Mod of JL - D23] (puzzle: Same State 1)
apparent KD of MS2 coat protein [3]: 188 nM

GCAACAGGGUGAGGAUAUCUAUGGACCGACCAUAGAGAAGGCACUGGAAACACAUGAGGAUCACCCAUGUGCCAAAGAACAGUA [Eternabot solution 9] (Eterna round: R96, puzzle: Same State NG 1)
apparent KD of MS2 coat protein (input ligand: FMN 200 uM): 17.5 nM
apparent KD of MS2 coat protein [1]: 22.4 nM
apparent KD of MS2 coat protein (input ligand: none): 28.4 nM

GCAGAACAUGAGGAUCACCCAUGUCUCUAAUAUUGAGGAUAUGGACACGGUAUAUCCGAACCAGAAGGCGAACUGC [SS1 Teenbexe 17] (puzzle: Same State 1)
apparent KD of MS2 coat protein [2]: 27.5 nM
apparent KD of MS2 coat protein [3]: 34 nM
apparent KD of MS2 coat protein [4]: 41.2 nM

GCAGGACAUGAGGAUCACCCAUGUUCAAAAUAUAGAGGAUAUGGAUACGGUAUAUCCGAACCAGAAGGCUACCUGC [SS1 Teenbexe 23] (puzzle: Same State 1)
apparent KD of MS2 coat protein [3]: 13.7 nM

GCAGUACUAGCAGAGGAUAUGUCGAUAACGACAUGAGGAUCACCCAUGUGUACGGAAGUACUCAGACAGAAGGCUGAGUACUGCU [Same State 2 - Hyphema v.2] (puzzle: Same State 2)
apparent KD of MS2 coat protein [2]: 15.2 nM
apparent KD of MS2 coat protein [3]: 30.2 nM
apparent KD of MS2 coat protein [4]: 41.8 nM

GCAUCACAUGAGGAUCACCCAUGUCUUCGGAGCGGAGGAUAUGGUCACUGUAAACAGUGGCCAGAAGGCUGGAUGC [SS1 - Son of Teenbexe v3] (puzzle: Same State 1)
apparent KD of MS2 coat protein [3]: 26 nM

GCCAACGCAUGAGGAUAUGGCACCUUAUUGGUGCCAGAAGGCAUGUCUAUUGACAUGAGGAUCACCCAUGUAUUAUAGUUGGCA [Fiskers NG1ss - 15] (Eterna round: R96, puzzle: Same State NG 1)
apparent KD of MS2 coat protein (input ligand: FMN 200 uM): 114 nM
apparent KD of MS2 coat protein [1]: 369 nM
apparent KD of MS2 coat protein (input ligand: none): 882 nM

GCCGCGUUUCGCGCCUACAUGAGGAUCACCCAUGUUUGUAGGCAGGAUAUCGCUUGCUUUGCGGGCGAGAAGGGCUGUUGUGGC [salish99_SSNG3_R04_018] (Eterna round: R96, puzzle: Same State NG 3)
apparent KD of MS2 coat protein (input ligand: FMN 200 uM): 36.8 nM
apparent KD of MS2 coat protein [1]: 56.8 nM
apparent KD of MS2 coat protein (input ligand: none): 51.6 nM

GCCGGCUGGUGAGGAUAUGGCGCCUUGUUGGUGCCAGAAGGCAUGUCUAUUGACAUGAGGAUCACCCAUGUGUUGUCGUUGGCG [salish99_SSNG1_r04_612] (Eterna round: R96, puzzle: Same State NG 1)
apparent KD of MS2 coat protein (input ligand: FMN 200 uM): 536 nM
apparent KD of MS2 coat protein [1]: 108 nM
apparent KD of MS2 coat protein (input ligand: none): 183 nM

GCCGUAUAAACAUGAGGAUCACCCAUGUGCGCGAGAGCGAAUGAGGAUAUCGAUGGGUUUCCCGUCGAGAAGGCGUGGGUCGGC [JL SSNG3 3.96] (Eterna round: R96, puzzle: Same State NG 3)
apparent KD of MS2 coat protein (input ligand: FMN 200 uM): 37.7 nM
apparent KD of MS2 coat protein [1]: 76.4 nM
apparent KD of MS2 coat protein (input ligand: none): 96.3 nM

GCGAAGAGGUAAGGAUAUUCAUGGCGGAGACAUGAGGAUCACCCAUGUAGGAGACGAAAUCUAAGGGAGAAGGUACCAGGACGC [AK SSNG2-V2-14] (Eterna round: R96, puzzle: Same State NG 2)
apparent KD of MS2 coat protein (input ligand: FMN 200 uM): 112 nM
apparent KD of MS2 coat protein [1]: 147 nM
apparent KD of MS2 coat protein (input ligand: none): 321 nM

GCGAGCGUACUUGCAACAUGAGGAUCACCCAUGUUAACUGGACAGGAUAUGGUACCGUUUCGGUACCAGAAGGGUUCCUCCAUG [JL SSNG3 3.61] (Eterna round: R96, puzzle: Same State NG 3)
apparent KD of MS2 coat protein (input ligand: FMN 200 uM): 160 nM
apparent KD of MS2 coat protein [1]: 134 nM
apparent KD of MS2 coat protein (input ligand: none): 135 nM

GCGGAACCUAACAUGAGGAUCACCCAUGUUCCGGAAACGGCACAGGAUAUCUGUCCGAAAAGGUCAGAGAAGGGUGAAAACCGC [Fiskers NG3ss - 95] (Eterna round: R96, puzzle: Same State NG 3)
apparent KD of MS2 coat protein (input ligand: FMN 200 uM): 131 nM
apparent KD of MS2 coat protein [1]: 307 nM
apparent KD of MS2 coat protein (input ligand: none): 390 nM

GCGGAACGGGCCGACAUGAGGAUCACCCAUGUGGCCUCAUGUAAGGAUAUCGGGAAGAAGAAAACCGAGAAGGUACGGUGACGC [AK SSNG3-V2-31] (Eterna round: R96, puzzle: Same State NG 3)
apparent KD of MS2 coat protein (input ligand: FMN 200 uM): 47.2 nM
apparent KD of MS2 coat protein [1]: 15.6 nM
apparent KD of MS2 coat protein (input ligand: none): 107 nM

GCGUUUAACGUAGGAUAUCGAGCUACAUGAGGAUCACCCAUGUCUUUGUAAAGUUUUUUUAAUUCCGAGAAGGACGUAUUGCAU [JR_SSNG2_Sub073] (Eterna round: R96, puzzle: Same State NG 2)
apparent KD of MS2 coat protein (input ligand: FMN 200 uM): 27.1 nM
apparent KD of MS2 coat protein [1]: 27.2 nM
apparent KD of MS2 coat protein (input ligand: none): 35.9 nM

GCUACCAUUGAAGCCAACAUGAGGAUCACCCAUGUAUGUUGGUAGGAUAUCGAUUGCUUUGCGAUCGAGAAGGGCUAAGGUAGC [JL SSNG3 1.28] (Eterna round: R96, puzzle: Same State NG 3)
apparent KD of MS2 coat protein (input ligand: FMN 200 uM): 52.6 nM
apparent KD of MS2 coat protein [1]: 48 nM
apparent KD of MS2 coat protein (input ligand: none): 45.1 nM

GCUAGAAAUAAAGCCAACAUGAGGAUCACCCAUGUAUGUUGGUAGGAUAUCGUUUGCAAAGCAAACGAGAAGGGCUAAUCUAGC [Mat - Same State NG 3 - JL Mod - D65] (Eterna round: R96, puzzle: Same State NG 3)
apparent KD of MS2 coat protein (input ligand: FMN 200 uM): 76.4 nM
apparent KD of MS2 coat protein [1]: 63.8 nM
apparent KD of MS2 coat protein (input ligand: none): 69.8 nM

GCUAGAAUAAAUGCCUACAUGAGGAUCACCCAUGUAUGUAGGCAGGAUAUCGUUUGCAAAGCAAACGAGAAGGGCCUUACUAGC [Mat - Same State NG 3 - JL Mod - D29] (Eterna round: R96, puzzle: Same State NG 3)
apparent KD of MS2 coat protein (input ligand: FMN 200 uM): 21.5 nM
apparent KD of MS2 coat protein [1]: 43 nM
apparent KD of MS2 coat protein (input ligand: none): 55.7 nM

GCUAGAAUCAAAGCCAACAUGAGGAUCACCCAUGUAUGUUGGUAGGAUAUCGUUUGCUUUGCAAACGAGAAGGACCAAACUAGC [SameState NG3 #1] (Eterna round: R96, puzzle: Same State NG 3)
apparent KD of MS2 coat protein (input ligand: FMN 200 uM): 30.2 nM
apparent KD of MS2 coat protein [1]: 75.3 nM
apparent KD of MS2 coat protein (input ligand: none): 87.1 nM
